One experiment addresses IgG1 Fc^E382A (human). The experiment in a line: crystal structure; IdeS^C94A and IgG1 Fc^E382A combined 1:1, complex purified by SEC, exchanged into 50 mM HEPES, 150 mM KCl pH 7.5; crystals in Morpheus condition (0.12 M monosaccharides mix, buffer system 3 pH 8.5, 30 % precipitant mix 1); space group C121, twinned data, 2.34 Å.
The next experiment deals with IgG1 Fc^E382R (human). The experiment in a line: crystal structure; EndoS^D233A/E235L and IgG1 Fc^E382R combined 1:1, complex purified by SEC, exchanged into 50 mM HEPES, 150 mM KCl pH 7.5; crystals in Morpheus condition (0.09 M halogens, buffer system 2 pH 7.5, 37.5 % precipitant mix 4); space group P2_(1)2_(1)2_(1), 3.45 Å. (In general: SEC sorts molecules by how far they enter the pores of the column.)

The term stoichiometry N denotes a count of units in the complex or per binding partner. For “IdeS^C94A (IdeS from Streptococcus pyogenes strain MGAS15252, Mac-2 variant, amino acids 41-339) (enzyme)”, the stoichiometry N with IgG1 Fc^E382A (human) was 1 IdeS per Fc.
With “EndoS^D233A/E235L (truncated EndoS, residues 98-995) (from UniProt Q99Y92 98-995) (enzyme)”, the stoichiometry N (EndoS per IgG1 Fc molecule) with IgG1 Fc^E382R (human) was 2.

For the origin of these results see PMC9759587.
